Source: the supplement of paper PMC10567573

B1: TRIM55 (parent)
chain: FQASNPYLPTRGGTTMASGGRFRC
B2: SOAT1 (parent)
chain: PSNGRIDIKQLIAKKIKLTAEAEE

Variants of: B1
Experiment: protein stability index of a GFP-peptide fusion (GPS, HEK-293T) (PSI 1-6); higher = more stable
Details: c terminus: a fixed tail appended
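Also: lentivirally expressed fusions sorted by FACS into six bins by GFP to DsRed ratio, PSI derived from sequencing read proportions per bin multiplied by bin number.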

Protein stability index of substitutions, site by site:
A17: C 2.24 | G 1.45 | D 1.76 | T 1.84
R23: A 2.37 | S 1.8
T14: S 2.11 | Y 1.5 | I 2 | M 2.32 | R 1.41 | K 2.3 | W 1.32
R21: I 1.42 | G 1.53 | C 2.35 | A 1.18 | F 1.71
S18: K 3.05 | L 2.45 | F 1.95 | Q 2.07 | G 2.35
G13: E 1.46 | H 2.32 | R 1.7 | Q 2.68
S4: C 2.64 | K 1.85 | R 1.44
Y7: N 3.4 | G 3.29 | E 3.2
A3: H 1.24 | C 1.32 | W 2.95 | T 1.54 | L 1.8 | Q 2.84
R11: C 2.76 | Y 2.28 | A 2.05 | G 2.02 | V 1.89
G20: Y 1.63 | Q 1.68 | I 1.73 | E 1.97 | W 2.07 | M 3.49
P6: E 2.26 | I 1.85 | V 3.02
F22: P 3.87 | E 2.46 | T 1.8 | Q 3.22 | N 2.14 | K 2.61
T15: W 1.75
C24: R 1.5 | A 2.21 | G 2.19 | N 3.51 | F 2.23
F1: H 3.24 | M 3.4 | Q 3.91 | P 3.91 | L 3.37 | R 3.57 | V 3.16
P9: V 2.2 | T 1.73 | A 1.14 | M 1.83
L8: Q 2.22 | M 1.26 | Y 1.59 | N 2 | F 1.63
Q2: I 2.22 | M 2 | S 2.13 | C 1.44 | D 3.43 | N 2.68
G19: F 1.91 | Q 2.06 | I 2.04 | P 1.83
N5: H 3.58 | P 2.22 | F 3.23 | C 2.6 | G 1.41
G12: E 1.55 | D 2.06 | M 1.05 | C 2.23 | I 2.77 | W 2.35
T10: E 2.99 | S 1.97 | A 2.06 | N 2.23
M16: P 2.92 | W 1.42 | T 1.99 | D 1.65 | G 2.5

Variants of: B2
Experiment: as above
Details: c terminus: a fixed tail appended

Protein stability index of substitutions, site by site:
S2: P 3.35 | R 3.08 | C 3.26 | L 3.09 | I 3.33 | H 3.01 | G 3.64 | W 2.88 | V 2.96 | E 3.46 | N 3.61 | Y 2.88 | K 2.58 | T 3.79 | F 2.94 | A 2.88 | D 4.03 | M 3.11 | Q 3.63
P1: K 3.04 | F 3.22 | I 3.57 | W 2.92 | S 3.46 | T 3.64 | G 3.33 | Q 3.23 | D 3.27 | M 3.1 | N 3.14 | C 2.86 | H 3.24 | R 3.35 | L 3.06 | A 3.1 | V 2.98 | E 2.65 | Y 3.62
N3: T 4.2 | M 3.66 | E 4.27 | V 3.58 | Q 4.09 | K 3.96 | P 4.11 | H 4.32 | A 4.25 | L 3.46 | S 4.13 | W 3.45 | C 3.86 | F 3.55 | I 3.87 | G 3.88 | D 4.38 | R 3.93
